# Experimental data reported in patent US20220144922A1 (Adimab, published 2022).
# Substitutions are numbered along the chain they refer to.
# B1: ADI-15661 (antibody, V domains shown)
# VH: EVQLVESGGGVVQPGRSLRLSCEASGFNFHNYDIQWVRQAPGKGLEWVALVLFDGSKKYYPHSVKGRFAISRDNSKKTLFLQMNSLRPEDTAVYYCARAPVTGASYYLDYWGQGTLVTVSS
# VL: SYVLTQPPSVSVAPGQTARITCGANNIGNKGVHWYQQKPGQAPVLVVYDDDDQPSGIPERFSGSNSGNTATLTISRVEAGDEADYYCQVWDSTSDHLVFGGGTQLTVL
# B2: ADI-15634 (antibody, V domains shown)
# VH: QVQLVQSGAEVKKPGSSVKVSCKASGGTFSSYAISWVRQAPGQGLEWMGGIIPIFGTVNYAQKFQGRVTITADESTSTAYMELSSLRSEDTAVYYCARDRSVTPRYYGMDVWGQGTTVTVSS
# VL: EIVMTQSPATLSLSPGERATLSCRASQSVSSYLAWYQQKPGQAPRLLIYDASNRATGIPARFSGSGSGTDFTLTISSLEPEDFAVYYCQHRSNWPPLTFGPGTKLEIK
# B3: ADI-15664 (antibody, V domains shown)
# VH: EVQLVESGAEVKKPGSSVKVSCKASGGTFSSYAISWVRQAPGQGLEWMGGTIPIFGTINYAQKFQGRLTINADASTSTAYMELSSLRSEDTAVYFCARDRTTAVRYYAMDVWGQGTTVTVSS
# VL: B2 VL with M4L, A51T, G57D, S92A, P101G, L105V
# B4: ADI-15636 (antibody, V domains shown)
# VH: EVQLVESGAEVKKPGSSVKVSCKASADTFSSYAISWVRQAPGQGLEWMGGILPILGTANSAQKFRGRVTFTADESTTTAYMELSSLRSEDTAVYYCARLAGPRWPGYGMDVWGQGTLVTVSS
# VL: DIQLTQSPSFLSASVGDRVTITCRASQGISSYLAWYQQKPGKAPKLLIYAASTLQSGVPSRFSGSGSGTEFTLTISSLQPEDFATYYCQQLNSFPLTFGGGTKVEIK
# B5: ADI-15572 (antibody, V domains shown)
# VH: QVQLVQSGAEAKKPGASVKVSCKASGYTFTSYYLHWVRQAPGQGPEWMGIINPGGGSTELSQKFQGRVTLTRDTSTSTVYMEVTSLTSEDTAVYYCARARIQLWAPNYYGMDVWGQGTTVTVSS
# VL: B4 VL with Q27H, S30T, K42N, G68E, E70Q, S77G, S93R, F94Y, G100Q
# B6: ADI-15590 (antibody, V domains shown)
# VH: EVQLLESGGLVVQPGGSLRLSCAASGFIFDDYTMHWVRQAPGKGLEWISLISWDSLDTYYAGSVQGRFTISRDNSRNSLYLRMNSLRPEDTALYYCAKTKYRGTYYYFDSWGQGTLVTVSS
# VL: DIRVTQSPSSLSASVGDRVTITCQASQDISNYLNWYQQKPGKAPKLLIYDASNLETGVPSRFSGRGSGTDFTFTISSLQPEDIATYYCQQYDNLPPVTFGPGTKVEIK
# B7: ADI-15630 (antibody, V domains shown)
# VH: QVQLVQSGGGLVKPGGSLRLSCAASGFIFSDYYMVWIRQAPGKGLEWVSYISSSSRYINYADSVKGRFTISRDNAKNSLFLQMNTVRAEDTAVYYCAQGWYSDFWSGPIRIWGQGTLVTVSS
# VL: DIQLTQSPSSLSASVGDRVTITCQASQDISNSLNWFQQKPGKAPKLLIFDAYNLETGVPSRFSGSGSGTDFTLTISSLQPEDIATYYCQQNDNLVLTFGGGTKLEIK
# B8: ADI-15613 (antibody, V domains shown)
# VH: EVQLVESGAEVKKPGSSVKVSCKVSGGTFSTYGISWIQQAPGQGLEWVGGIIPMFGTANYAQRFQGRVTLTADEGTNTAYMELNNLRSEDTAMYYCARDRGNNGRYYAMDVWGQGTTVTVSS
# VL: DIVLTQTPATLSLSPGERATLSCRASQSVTTYLAWYQQKPGQAPRLLIYDTSNRATGIPARFSGSGSGTDFTLTISSLEPEDFAVYYCQQRNNWPPTFGQGTRLEIK
# B9: ADI-15555 (antibody, V domains shown)
# VH: EVQLVESGGALVKPGGSLRLSCVGTGLTFTTAYMSWARQAPGKGLEWVGRIKSKSDGGTTDYPTPVKGRFTISRDESKNTLYLQMNSLKIEDTAVYYCTTDRGITARPIFDSWGQGTLVTVSS
# VL: QSVLTQPPSVSGALGRRVTISCTGSSSNIGAGYDVHWYRQLPGTAPKLLIYGNTKRPSGVPDRFSGSKYATSASLAITGLQAEDDADYYCQSYDGGLSGYVFGTGTKLTVL
# B10: ADI-15579 (antibody, V domains shown)
# VH: EVQLVESGGGLVQPGRSLRLSCAAFGFTFDDYAMHWVRQAPGKGLEWVSGISWNSGFIGYADSVKGRFTISRDNAKNSLSLQMNSLRTEDTALYYCAKTDGAVAVDGPFDYWGQGTLVTVSS
# VL: EIVLTQSPSSLSASVGDRVTITCRASQSISGYLSWYQQKPGKAPKLLIHSTSSLQSGVPSRFSGSGSGTDFTLTITSLQPEDFATYYCQQSYIAPPTFGQGTKVEIK
# B11: ADI-15562 (antibody, V domains shown)
# VH: QVQLVQSGAEVKKPGDSLKISCKNAGHTSRIYWIAWVRQMPAKGLEYMGIIFPGDSDTRYSPSFRGQVTISADRSIRTAYLQLSSLKASDTGIYYCATQGLEGAFDYWGQGTLVTVSS
# VL: DIRLTQSPSSLSASVGDRVTITCQASQDISNQLNWYQQKPGTAPKLLIYDASFLQTGVPSRFSGSGSGTHFTFTITSLQPEDFATYFCQHYDSFPIFTFGPGTKLEIK
# B12: ADI-15581 (antibody, V domains shown)
# VH: QVQLVQSGAEVKKPGSSMKVSCQASGGPFSTYTISWVRQAPGQGLEWMGGIIPVFGTPNYAQKFHGRVTITADQSTSTAYMELSSLRSEDTAVYYCAGAPYPMDVWGQGTTVTVSS
# VL: EIVLTQSPATLSLSPGERATLSCRASQSVASSLAWYQQKPGQAPRLLIYDASNRATGIPARFSGSGSGTDFTLTISSLEPEDFAVYYCQQRTNWQGLSFGGGTKVDIK
# B13: ADI-15570 (antibody, V domains shown)
# VH: QVQLVESGGGVVQPGKSLRLSCAASGFTFSSYPMHWVRQAPGAGLEWMAVISYDGANKYYEDSLKGRFTISRDNSKDTLFLQMNNLRPEDTAVYYCARGRTSHINTPETKWGQGTLVTVSS
# VL: EIVLTQSPTLVSASTGDTVTISCRMSQGINGYLAWFQKKPGKAPDLLIYGASTLQDGVPSRFSGSGSGTDFTLTISRLQSEDLATYYCQQYYSLPWTFGQGTKVDIK
# B14: ADI-15589 (antibody, V domains shown)
# VH: QVQLQQWGAGLLKPSETLSLTCAVYGGSFSGYYWGWIRQPPGKGLEWIGEVNHSGTSNYNPSLTSRVTISVDPSKKQLSLKLNSVTAADTAVYYCARAPWYTHAMDVWGQGTTVTVSS
# VL: QSVLTQPASVSGSPGQSITISCTRTSSDVGAYSYVSWYQQHPGKAPKLMIYDVNNRPSGVSNRFSGSKSGNTASLTISGLQAEDEADYYCSSYTNSNTLGVFGGGTKLTVL
# Biological target: RSV F protein of subtype A strain A2, on virus (respiratory syncytial virus subtype A …, UniProt P03420 26-574)
# Assay: cell-based or functional assay
row,Binder,Neut IC50 (ug/ml) subtype A
1,B1,0.021 µg/mL
2,B2,> 10 µg/mL
3,B3,> 10 µg/mL
4,B4,> 10 µg/mL
5,B5,9.48 µg/mL
6,B6,> 10 µg/mL
7,B7,> 10 µg/mL
8,B8,0.862 µg/mL
9,B9,2.19 µg/mL
10,B10,8.02 µg/mL
11,B11,0.01 µg/mL
12,B12,8.25 µg/mL
13,B13,13.3 µg/mL
14,B14,0.876 µg/mL

# Biological target: RSV F protein of subtype B strain 18537, on virus (respiratory syncytial virus subtype B …, UniProt P13843 26-574)
# Assay: cell-based or functional assay
row,Binder,Neut IC50 (ug/ml) subtype B
1,B1,> 10 µg/mL
2,B2,> 10 µg/mL
3,B3,> 10 µg/mL
4,B4,6.44 µg/mL
5,B5,6.25 µg/mL
6,B6,> 10 µg/mL
7,B7,6.64 µg/mL
8,B8,3.04 µg/mL
9,B9,2.45 µg/mL
10,B10,> 10 µg/mL
11,B12,6.12 µg/mL
12,B13,> 10 µg/mL
13,B14,18.5 µg/mL
